Laboratory results reported in publication doi:10.1101/2023.12.01.569227 (bioRxiv, 2023).

Biological target: SARS-CoV-2 RBD (SARS-CoV-2, Wuhan-Hu-1, UniProt P0DTC2, biotinylated with an EZ-Link NHS-PEG4 biotinylation kit)
Test: BLI

Binder	fold improvement in binding affinity over VHH-72 [fold]	binding result
Seq8 (VHH) VHH: QVQLQESGGGLVQAGGSLRLSCAASGYGFSEYAMGWFRQAPGKEREFVATISWSGRSTYYTDSVKGRFTISRDNAKNTVYLQMNSLKPDDTAVYYCARAGWGVVVSEWDYDYDYWGQGTQVTVSS	> 2	
Seq7 (VHH) VHH: QVQLQESGGGLVQAGGSLRLSCAASGLKFSETAMGWFRQAPGKEREFVATISWSGRSTYYTDSVKGRFTISRDNAKNTVYLQMNSLKPDDTAVYYCARAGYGVVVSEWDYDYDYWGQGTQVTVSS	> 2	
Seq1 (VHH) VHH: QVQLQESGGGLVQAGGSLRLSCAASGRTFSETAMGWFRQAPGKEREFVATISWSGRGTYYTDSVKGRFTISRDNAKNTVYLQMNSLKPDDTAVYYCAYAGYGVVVSEWDYDYDYWGQGTQVTVSS	> 2	
Seq2 (VHH) VHH: QVQLQESGGGLVQAGGSLRLSCAASGRGFSEYAMGWFRQAPGKEREFVATISWSGGGTYYTDSVKGRFTISRDNAKNTVYLQMNSLKPDDTAVYYCARAGFGVWVSEWDYDYDYWGQGTQVTVSS	> 2	
Seq3 (VHH) VHH: QVQLQESGGGLVQAGGSLRLSCAASGRMFSETAMGWFRQAPGKEREFVATISWSGRGTYYTDSVKGRFTISRDNAKNTVYLQMNSLKPDDTAVYYCAGAGYGVYVSEWDYDYDYWGQGTQVTVSS	> 2	
Seq4 (VHH) VHH: QVQLQESGGGLVQAGGSLRLSCAASGRSFSEYAMGWFRQAPGKEREFVATISWSGRATYYTDSVKGRFTISRDNAKNTVYLQMNSLKPDDTAVYYCARAGYGVVVSEWDYDYDYWGQGTQVTVSS	> 2	
Seq6 (VHH) VHH: QVQLQESGGGLVQAGGSLRLSCAASGRLFSEYAMGWFRQAPGKEREFVATISWSGRSTYYTDSVKGRFTISRDNAKNTVYLQMNSLKPDDTAVYYCAKAGWGVVVSEWDYDYDYWGQGTQVTVSS	> 2	
Seq5 (VHH) VHH: QVQLQESGGGLVQAGGSLRLSCAASGRMFSEYAMGWFRQAPGKEREFVATISWSGKGTYYTDSVKGRFTISRDNAKNTVYLQMNSLKPDDTAVYYCARAGFGVYVSEWDYDYDYWGQGTQVTVSS	> 2	
Seq12 (VHH) VHH: QVQLQESGGGLVQAGGSLRLSCAASGRTFSEYAMGWFRQAPGKEREFVATISWSGGSKYYTDSVKGRFTISRDNAKNTVYLQMNSLKPDDTAVYYCAAAGLGTVVSEWDYDYDYWGQGTQVTVSS		binds
Seq11 (VHH) VHH: QVQLQESGGGLVQAGGSLRLSCAASGRKFSEYAMGWFRQAPGKEREFVATISWSGRLTYYTDSVKGRFTISRDNAKNTVYLQMNSLKPDDTAVYYCAGAGYGVVVSEWDYDYDYWGQGTQVTVSS	> 2	
